Reference: US20230226151A1

Target: Mouse FGFR4/β-klotho complex co-expressed in L6 cells (mouse) (UniProt Q03142)
Test: cell-based or functional assay

Chain of Mouse FGFR4/β-klotho complex co-expressed in L6 cells (mouse) (Q03142 17-799, chain 1 of 2): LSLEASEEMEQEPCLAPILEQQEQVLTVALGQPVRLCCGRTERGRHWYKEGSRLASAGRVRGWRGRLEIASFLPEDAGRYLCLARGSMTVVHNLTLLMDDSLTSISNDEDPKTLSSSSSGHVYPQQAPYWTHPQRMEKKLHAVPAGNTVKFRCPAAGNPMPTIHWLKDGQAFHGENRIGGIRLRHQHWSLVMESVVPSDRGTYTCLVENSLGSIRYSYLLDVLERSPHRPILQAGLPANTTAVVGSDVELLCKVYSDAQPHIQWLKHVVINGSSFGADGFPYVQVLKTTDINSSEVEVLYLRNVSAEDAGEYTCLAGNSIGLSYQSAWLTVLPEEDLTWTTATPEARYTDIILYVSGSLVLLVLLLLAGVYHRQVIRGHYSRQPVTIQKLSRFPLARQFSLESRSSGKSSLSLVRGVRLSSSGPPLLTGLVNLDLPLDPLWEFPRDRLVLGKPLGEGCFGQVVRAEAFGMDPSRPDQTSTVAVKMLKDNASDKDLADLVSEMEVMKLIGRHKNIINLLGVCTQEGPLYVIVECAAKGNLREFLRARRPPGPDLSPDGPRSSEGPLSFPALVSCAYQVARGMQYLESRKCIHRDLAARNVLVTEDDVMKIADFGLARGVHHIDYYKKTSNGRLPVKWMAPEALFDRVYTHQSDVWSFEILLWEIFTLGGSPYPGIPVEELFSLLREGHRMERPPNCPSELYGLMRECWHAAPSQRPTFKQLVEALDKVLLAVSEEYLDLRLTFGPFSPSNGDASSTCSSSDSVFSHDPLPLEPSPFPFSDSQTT
Chain of Mouse FGFR4/β-klotho complex co-expressed in L6 cells (mouse) (Q99N32 whole entry, chain 2 of 2, further chain): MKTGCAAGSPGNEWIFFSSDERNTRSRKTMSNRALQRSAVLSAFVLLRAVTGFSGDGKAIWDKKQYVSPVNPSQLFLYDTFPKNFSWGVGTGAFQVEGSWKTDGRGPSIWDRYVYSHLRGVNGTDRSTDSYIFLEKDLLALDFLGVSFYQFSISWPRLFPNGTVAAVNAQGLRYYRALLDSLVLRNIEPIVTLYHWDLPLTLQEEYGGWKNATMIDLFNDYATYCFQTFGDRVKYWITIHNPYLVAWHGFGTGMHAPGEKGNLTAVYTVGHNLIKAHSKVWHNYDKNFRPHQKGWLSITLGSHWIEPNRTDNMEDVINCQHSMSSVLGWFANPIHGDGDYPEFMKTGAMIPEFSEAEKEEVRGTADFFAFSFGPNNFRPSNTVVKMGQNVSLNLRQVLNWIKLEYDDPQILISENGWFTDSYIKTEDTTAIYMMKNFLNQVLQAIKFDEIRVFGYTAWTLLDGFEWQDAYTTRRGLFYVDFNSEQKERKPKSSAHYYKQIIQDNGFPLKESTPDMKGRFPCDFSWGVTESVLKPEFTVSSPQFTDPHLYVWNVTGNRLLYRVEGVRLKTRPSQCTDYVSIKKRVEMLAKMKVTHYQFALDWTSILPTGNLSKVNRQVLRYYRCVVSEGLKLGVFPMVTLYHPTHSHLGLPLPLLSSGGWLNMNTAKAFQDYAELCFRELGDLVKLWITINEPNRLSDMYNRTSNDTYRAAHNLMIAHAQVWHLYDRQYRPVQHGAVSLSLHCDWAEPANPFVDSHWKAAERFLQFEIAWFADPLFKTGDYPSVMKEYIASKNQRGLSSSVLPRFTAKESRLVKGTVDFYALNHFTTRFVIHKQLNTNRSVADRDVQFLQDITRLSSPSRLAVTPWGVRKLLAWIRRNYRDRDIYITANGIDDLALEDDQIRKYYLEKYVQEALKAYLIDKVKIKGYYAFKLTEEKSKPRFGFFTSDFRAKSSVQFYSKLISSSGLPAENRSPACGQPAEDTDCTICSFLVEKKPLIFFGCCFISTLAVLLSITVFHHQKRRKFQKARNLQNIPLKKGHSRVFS

Q: Which results are given for “FGF19 (wild type human fibroblast growth factor 19) (from UniProt O95750 23-216) (ligand)”?
A: EC50 (pM), ELK1 luciferase reporter in L6 cells: 52.5 pM; Emax (fold potentiation), ELK1 luciferase reporter in L6 cells (fold potentiation): 1.82
